Test in all cases: cell-based or functional assay
Test [1] has as its target hemagglutinin (HA) of A/Puerto Rico/8/34 (H1N1) on pseudotyped lentivirus (Influenza virus A/Puerto Rico/8/34 (H1N1)) (UniProt P03452).
The target of test [2] is hemagglutinin (HA) of A/Singapore/6/86 (H1N1) on pseudotyped lentivirus (Influenza virus A/Singapore/6/86 (H1N1)) (UniProt A3DRP0).
Test [3] addresses hemagglutinin (HA) of A/Beijing/262/95 (H1N1) on pseudotyped lentivirus (Influenza virus A/Beijing/262/95 (H1N1)).
Test [4] deals with hemagglutinin (HA) of A/Iowa/43 (H1N1) on pseudotyped lentivirus (Influenza virus A/Iowa/43 (H1N1)) (UniProt A4GCK8).
The target in test [5] is hemagglutinin (HA) of A/Solomon Islands/3/06 (H1N1) on pseudotyped lentivirus (Influenza virus A/Solomon Islands/3/06 (H1N1)).
The target in test [6] is hemagglutinin (HA) of A/Fort Monmouth/1/47 (H1N1) on pseudotyped lentivirus (Influenza virus A/Fort Monmouth/1/47 (H1N1)) (UniProt A4U7A6).
Test [7] has as its target hemagglutinin (HA) of A/South Carolina/1/18 (H1N1) on pseudotyped lentivirus (Influenza virus A/South Carolina/1/18 (H1N1)) (UniProt Q9WFX3).
In test [8] the target is hemagglutinin (HA) of A/New York/8/06 (H1N1) on pseudotyped lentivirus (Influenza virus A/New York/8/06 (H1N1)).
The target of test [9] is hemagglutinin (HA) of A/New Jersey/76 (H1N1) on pseudotyped lentivirus (Influenza virus A/New Jersey/76 (H1N1)).
Test [10] has as its target hemagglutinin (HA) of A/New York/653/96 (H1N1) on pseudotyped lentivirus (Influenza virus A/New York/653/96 (H1N1)).
The target in test [11] is hemagglutinin (HA) of A/Hong Kong/117/77 (H1N1) on pseudotyped lentivirus (Influenza virus A/Hong Kong/117/77 (H1N1)) (UniProt P18875).
Test [12] deals with hemagglutinin (HA) of A/New Caledonia/20/99 (H1N1) on pseudotyped lentivirus (Influenza virus A/New Caledonia/20/1999 (H1N1)) (UniProt Q289M7).
The target in test [13] is hemagglutinin (HA) of A/New York/146/00 (H1N1) on pseudotyped lentivirus (Influenza virus A/New York/146/00 (H1N1)).

Consider “monoclonal antibody CH65 (anti-receptor binding site of HA)”, for which the Neutralization IC50, lentivirus pseudotype neutralization assay is 0.44 µg/mL in test [1]; less than 0.005 µg/mL in [2]; 0.01 µg/mL in [3]; more than 50 µg/mL in [4]; 1.3 µg/mL in [5]; 5.86 µg/mL in test [6]. The Neutralization IC50, lentivirus pseudotype neutralization assay in test [7] is 0.57 µg/mL; in [8], 0.02 µg/mL; in test [9], more than 25 µg/mL; in [10], less than 0.005 µg/mL; in test [11], 0.97 µg/mL; in test [12] it was 0.01 µg/mL. In addition, in test [13], the Neutralization IC50, lentivirus pseudotype neutralization assay was determined as 0.03 µg/mL.

For the substance monoclonal antibody 441D6, the Neutralization IC50, lentivirus pseudotype neutralization assay in test [1] is 0.08 µg/mL; in test [2] it was 0.01 µg/mL; in test [3], 0.07 µg/mL; in [4], 11.1 µg/mL; in test [5], 0.29 µg/mL; in [6] it was 0.02 µg/mL. Besides, the Neutralization IC50, lentivirus pseudotype neutralization assay in test [7] worked out at 0.04 µg/mL; in test [8] it was 0.14 µg/mL; in [9], 0.03 µg/mL; in [10], 0.02 µg/mL; in [11], 0.04 µg/mL; in test [12], 0.04 µg/mL. Moreover, the Neutralization IC50, lentivirus pseudotype neutralization assay in test [13] worked out at 0.01 µg/mL.

Regarding “monoclonal antibody FI6v3 (anti-HA stem region)”, the Neutralization IC50, lentivirus pseudotype neutralization assay in [1] worked out at 0.97 µg/mL; in test [2] it was 0.01 µg/mL; in test [3] it was 1.01 µg/mL; in test [4], 3.4 µg/mL; in test [5] it was 0.94 µg/mL; in [6] it was 22.2 µg/mL. The Neutralization IC50, lentivirus pseudotype neutralization assay in test [7] was 4.4 µg/mL; in [8], more than 25 µg/mL; in test [9] it was 0.36 µg/mL; in test [10], 0.15 µg/mL; in test [11], 0.09 µg/mL; in [12], 0.09 µg/mL. Further, in test [13], the Neutralization IC50, lentivirus pseudotype neutralization assay came out at 0.08 µg/mL.

The values are drawn from patent US20220054419A1.
